Measured values from patent US20190224274, “MIF INHIBITORS AND METHODS OF USE THEREOF” (The Johns Hopkins University, published 2019).

Legend:
[1] = target: T1, MIF (Homo sapiens, UniProt P14174 P14174:1-115); assay: EMSA; 10 mM Mg2+; details: tags: GST tag removed (pGex-6P-1); chain copies: 3 (inferred, trimer by FPLC); label: 5' biotin
T1 sequence: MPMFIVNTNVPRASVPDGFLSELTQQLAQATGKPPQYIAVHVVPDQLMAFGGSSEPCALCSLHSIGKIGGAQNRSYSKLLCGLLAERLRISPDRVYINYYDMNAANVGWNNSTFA
Method: In parallel with the ssDNA studies, MIF was tested to see if it binds to dsDNA using PS³⁰, poly A, PS³⁰ sequence-related substrates (5′bPS³⁰, 5′bSL, 5′bLF, 5′bRF, 5′bPA³⁰, and 5′bPASE) as well as non-related sequences (PCS and 5′bL3) (FIG. 3B and FIG. 19).
(§1) EMSA assay was performed using LightShift Chemiluminescent EMSA kit (Thermo Scientific) following the manufactures instruction. Briefly, purified MIF protein (2 μM) was incubated with biotin-labeled DNA substrates (10 nM) in the binding buffer containing 10 mM MgCl₂ for […] on ice. Then samples were separated on 6% retardation polyacrylamide followed by electrophoretic transfer to nylon membrane.

[2] = target: T2, MIF D17A (Homo sapiens, UniProt P14174 P14174:1-115, D17A); assay: EMSA; 10 mM Mg2+; text prints P17A; details: tags: GST tag removed; chain copies: 3; label: 5' biotin; stem loop with unpaired 5' and 3' bases
T2 sequence: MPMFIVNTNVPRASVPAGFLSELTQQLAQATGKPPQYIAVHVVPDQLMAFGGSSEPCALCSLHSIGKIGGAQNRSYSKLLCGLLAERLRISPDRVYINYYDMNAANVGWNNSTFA
Method: (§2) Both single stranded and double stranded forms of two classes of MIF DNA binding motifs were examined for MIF binding and cleavage specificity. The ssPS³⁰ sequence was synthesized with a 5′ biotin label and subjected to an electrophoretic mobility shift assay (EMSA) (FIG. 18C).
as §1

[3] = target: T3, MIF D17Q (Homo sapiens, UniProt P14174 P14174:1-115, D17Q); assay: EMSA; 10 mM Mg2+; text prints P17Q; details: tags: GST tag removed; chain copies: 3; label: 5' biotin; stem loop with unpaired 5' and 3' bases
T3 sequence: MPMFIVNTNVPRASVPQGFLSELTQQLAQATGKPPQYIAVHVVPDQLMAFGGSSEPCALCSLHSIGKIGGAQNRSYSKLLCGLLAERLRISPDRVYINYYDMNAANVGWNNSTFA
Method: as §2, §1

[4] = target: T4, MIF E22Q (Homo sapiens, UniProt P14174 P14174:1-115, E22Q); assay: EMSA; 10 mM Mg2+; details: tags: GST tag removed; chain copies: 3 (inferred); label: 5' biotin; stem loop with unpaired 5' and 3' bases
T4 sequence: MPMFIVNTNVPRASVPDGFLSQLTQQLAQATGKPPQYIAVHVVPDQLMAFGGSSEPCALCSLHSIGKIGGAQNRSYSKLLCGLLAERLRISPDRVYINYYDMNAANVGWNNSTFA
Method: as §2, §1

[5] = target: T5, MIF E22A (Homo sapiens, UniProt P14174 P14174:1-115, E22A); assay: EMSA; 10 mM Mg2+; details: tags: GST tag removed; chain copies: 3 (inferred); label: 5' biotin; stem loop with unpaired 5' and 3' bases
T5 sequence: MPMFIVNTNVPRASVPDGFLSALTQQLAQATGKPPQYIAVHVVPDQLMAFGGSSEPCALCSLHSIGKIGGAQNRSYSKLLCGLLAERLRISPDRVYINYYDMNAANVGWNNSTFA
Method: as §2, §1

[6] = target: T6, MIF P16A (Homo sapiens, UniProt P14174 P14174:1-115, P16A); assay: EMSA; 10 mM Mg2+; details: tags: GST tag removed; chain copies: 3; label: 5' biotin; stem loop with unpaired 5' and 3' bases
T6 sequence: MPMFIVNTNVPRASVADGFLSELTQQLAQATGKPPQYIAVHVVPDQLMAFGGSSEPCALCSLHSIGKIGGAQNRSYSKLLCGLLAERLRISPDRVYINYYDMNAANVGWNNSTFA
Method: as §2, §1

[7] = target: T1, MIF; assay: EMSA; 10 mM Mg2+; details: tags: GST tag removed (pGex-6P-1); chain copies: 3 (inferred, trimer by FPLC); label: 5' biotin; stem loop, 1 unpaired 3' base
[8] = target: T1, MIF; assay: EMSA; 10 mM Mg2+; no obvious effect vs PS30; details: tags: GST tag removed (pGex-6P-1); chain copies: 3 (inferred, trimer by FPLC); label: 5' biotin; stem loop, no 3' unpaired bases
Method: 5′ biotin labeled ssPS³⁰ and its sequence-related substrates with different structures by removing unpaired bases at the 5′ end, 3′ end, both 5′ and 3′ ends or eliminating the stem loop were used in the EMSA (FIG. 3B, and FIG. 19).
EMSA assay was performed using LightShift Chemiluminescent EMSA kit (Thermo Scientific) following the manufactures instruction. Briefly, purified MIF protein (2 μM) was incubated with biotin-labeled DNA substrates (10 nM) in the binding buffer containing 10 mM MgCl₂ for 30 mM on ice. Then samples were separated on 6% retardation polyacrylamide followed by electrophoretic transfer to nylon membrane. Then, Biotin-labeled DNA is further detected by chemiluminescence using Chemiluminescent Nucleic Acid Detection Module (Thermo Scientific).

B1: dsPS30 (dsDNA)
DNA 1: CTCAGCCTCCCAAGTAGCTGGGATTACAGG
DNA 2: CCTGTAATCCCAGCTACTTGGGAGGCTGAG
[1]
  binding result: no binding

## CTCAGCCTCCCAAGTAGCTGGGATTACAGG (ssDNA) [PS30]
[2]
  binding result: binds
[3]
  binding result: binds
[4]
  binding result: binds
[5]
  binding result: binds
[6]
  binding result: binds

## AAAAAAAAAACAAGTAGCTGGGATTACAGG (ssDNA) [3F1]
[7]
  binding result: binds

B2: dsPA30 (dsDNA)
DNA 1: AAAAAAAAAAAAAAAAAAAAAAAAAAAAAA
DNA 2: TTTTTTTTTTTTTTTTTTTTTTTTTTTTTT
[1]
  binding result: no binding

B3: dsRF (dsDNA)
DNA 1: TCCCAAGTAGCTGGGATTACAGGAAAAAAA
DNA 2: TTTTTTTCCTGTAATCCCAGCTACTTGGGA
[1]
  binding result: no binding

B4: dsSL (dsDNA)
DNA 1: CCTGTAATCCCAAGTAGCTGGGATTACAGG
DNA 2: CCTGTAATCCCAGCTACTTGGGATTACAGG
[1]
  binding result: no binding

B5: dsLF (dsDNA)
DNA 1: AAAAAAACTCAGCCTCCCAAGTAGCTGGGA
DNA 2: TCCCAGCTACTTGGGAGGCTGAGTTTTTTT
[1]
  binding result: no binding

## AAAAAAACTCAGCCTCCCAAGTAGCTGGGA (ssDNA) [LF]
[8]
  binding result: binds

B6: dsL3 (dsDNA)
DNA 1: ACCTAAATGCTAGAGCTCGCTGATCAGCCT
DNA 2: AGGCTGATCAGCGAGCTCTAGCATTTAGGT
[1]
  binding result: no binding
